In article PMC6396024, “Artemin and an Artemin-Derived Peptide, Artefin, Induce Neuronal Survival, and Differentiation Through Ret and NCAM” (Frontiers in Molecular Neuroscience, 2019):
Bridge positions count the residues as written; N and C are the ends. Ends that are not written are not given here. I, II: the chains in the order shown.

T1: recombinant human GFRα3/Fc (human, UniProt O60609 32-374)
T1 construct: GDNF family receptor alpha-3 (GFRα3), human; Commercial Fc chimera; also called GFL receptor α3; source: bought: R&D Systems
T1 sequence (looked up): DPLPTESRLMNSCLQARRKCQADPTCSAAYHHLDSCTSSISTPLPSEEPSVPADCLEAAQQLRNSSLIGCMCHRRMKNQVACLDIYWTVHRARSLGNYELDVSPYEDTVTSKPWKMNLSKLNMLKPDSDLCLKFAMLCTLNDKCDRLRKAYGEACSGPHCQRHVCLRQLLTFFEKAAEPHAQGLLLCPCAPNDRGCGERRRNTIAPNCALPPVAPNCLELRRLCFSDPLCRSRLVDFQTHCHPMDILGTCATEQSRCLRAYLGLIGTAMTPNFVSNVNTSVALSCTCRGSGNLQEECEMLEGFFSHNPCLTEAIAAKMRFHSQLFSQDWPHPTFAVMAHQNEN

B1: recombinant human Artemin (ARTN) (ligand, UniProt Q5T4W7 108-220, looked up)
chain: AGGPGSRARAAGARGCRLRSQLVPVRALGLGHRSDELVRFRFCSGSCRRARSPHDLSLASLLGAGALRPPPGSRPVSQPCCRPTRYEAVSFMDVNSTWRTVDRLSATACGCLG
notes: Artemin (ARTN), human, UniProt D3DPX9; source: bought: R&D Systems

What was measured:
[1] = Circular dichroism spectroscopy; type: physicochemical; conditions: 10 μM, 10 mM NaH2PO4 pH 7.0, room temperature, tetrameric peptide
Experimental: Circular dichroism (CD) spectra were measured over the range 190–250 nm using a Jasco J-810 spectropolarimeter in cells with path length 1 mm at room temperature. The peptide was dissolved in 10 mM NaH2PO4 buffer, pH 7.0, to the final concentration 10 μM. Data were recorded at a scan speed of 20 nm/min with 10 repeat scans accumulated to obtain the final average spectra. Following the buffer subtraction, the observed ellipticity θ (mdeg) was converted to mean residue ellipticity [θ] (deg cm^2/dmol) using the following relationship [θ] = 100θ /(lcn) where ‘l’ is path length in centimeters, ‘c’ is the millimolar concentration, and ‘n’ is the number of residues in the peptide.

GFRα1 [2] = experiment: SPR binding to immobilized GFRα1/Fc; conditions: artefin 15.6 μM
[3] = molecular target: T1, recombinant human GFRα3/Fc; experiment: SPR; Biacore 2000, 25°C, HBS-EP (10 mM HEPES pH 7.4, 150 mM NaCl, 3 mM EDTA, 0.005% P20); ARTN (~2300 RU) or artefin (~1600 RU) amine-coupled on a CM4 chip; serially diluted GFRα3/Fc or NCAM Ig1–3 injected at 20 μl/min; 1:1 interaction model or steady-state affinity analysis; conditions: both partners purified
[4] = molecular target: T2, recombinant rat NCAM Ig1–3 (rat, UniProt P13596 20-308); experiment: as above; conditions: both partners purified
T2 construct: neural cell adhesion molecule (NCAM), rat, Ig1–3 domains; also called NCAM Ig1–3 domain; source: recombinant, produced as described previously (Soroka et al., 2003)
T2 sequence (P13596 20-308): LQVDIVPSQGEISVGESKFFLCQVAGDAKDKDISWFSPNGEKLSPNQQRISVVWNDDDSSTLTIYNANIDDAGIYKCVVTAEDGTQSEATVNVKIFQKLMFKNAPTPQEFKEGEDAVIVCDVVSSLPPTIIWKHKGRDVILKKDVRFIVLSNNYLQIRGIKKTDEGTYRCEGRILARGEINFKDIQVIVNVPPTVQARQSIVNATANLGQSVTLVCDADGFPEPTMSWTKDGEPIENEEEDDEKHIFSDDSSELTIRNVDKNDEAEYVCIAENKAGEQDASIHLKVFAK

[5] = tested on: patients with lumbosacral radiculopathy; conditions: intravenous, Phase 2; particularly at the lowest dose; ref Backonja et al., 2017; cited from earlier work
Text: Results from Phase 1 clinical trials ([Rolan et al., 2015]; [Okkerse et al., 2016]) further support the application of ARTN for treatment of peripheral nerve injury and attenuation of neuropathic pain. A recent Phase 2 trial (SPRINT) that evaluated the sa ...

mice = conditions: intracerebroventricular, ref Mannelli et al., 2011; cited from earlier work
Text: (§1) Artemin (ARTN) is a member of the glial cell line-derived neurotrophic factor family ligands (GFLs) which includes three other members: glial cell line-derived neurotrophic factor (GDNF), neurturin (NRTN), and persephin (PSPN) ([Baloh et al., 1998b]; [Airaksinen and Saarma, 2002]). GFLs affect the generation, survival, and growth of neurons in different CNS neuronal populations, including midbrain dopaminergic neurons, central motor neurons, and noradrenergic neurons ([Airaksinen and Saarma, 2002]). Similar to GDNF, ARTN is a potential neuroprotective agent as it promotes the survival of dopam ...

dopaminergic neurons = conditions: in vitro; ref Rosenblad et al., 2000; Sariola and Saarma, 2003; cited from earlier work
Text: as §1

GFRα1 [6] = tested on: GFRα1; design: method as in Scott and Ibañéz, 2001; conditions: previously shown; ref Scott and Ibañéz, 2001; cited from earlier work

Row | Molecule | far-UV CD bands ([1]; 190–250 nm) | secondary structure in solution (far-UV CD) [1] | binding to GFRα1 (GFRα1 [2]) | Kd [3] | Kd [4] | reducing pain in patients with lumbosacral radiculopathy [5] | antidepressant effects (mice) | survival of dopaminergic neurons (dopaminergic neurons) | interaction with GFRα1 (GFRα1 [6])
1 | I: RSPHDLSLASLLGAGKK-NH2 / II: RSPHDLSLASLLGAGK / III: RSPHDLSLASLLGAG / IV: RSPHDLSLASLLGAG (amide I:16-IV:C, I:17-II:C, II:16-III:C; C-terminus assumed) [artefin] | negative band at 208 nm, a shoulder at 222 nm, and a positive band at 193 nm | a-helix confirmation is dominant | binds to GFRα1 |  |  |  |  |  | 
2 | B1 |  |  |  | 0.0027 µM | 13 µM | showed evidence of pain relief | dose-dependent antidepressant effects | promotes the survival of dopaminergic neurons in vitro | previously been shown to interact with GFRα1
